# Measured values: PMC9687537
# Target: DYNC2H1 [human (endogenous in RPE1)]
# Experiment: GFP-trap purification, TMT-labelling and mass spectrometry
# Details: RPE1 WDR34 KO cell lines expressing GFP proteins, serum-starved for 24 h; read off a plot
row,Substance,ratio to parent
1,GFP–WDR34-WT mutant R447Q [human] / DYNC2H1 [human (endogenous in RPE1)] chain 1 R447Q,0.62
2,GFP–WDR34-WT mutant P390L [human] / DYNC2H1 [human (endogenous in RPE1)] chain 1 P390L,1.6
3,GFP–WDR34-WT mutant S410I [human] / DYNC2H1 [human (endogenous in RPE1)] chain 1 S410I,0.45
4,GFP–WDR34-WT mutant T354M [human] / DYNC2H1 [human (endogenous in RPE1)] chain 1 T354M,0.22
5,GFP–WDR34-WT mutant K436R [human] / DYNC2H1 [human (endogenous in RPE1)] chain 1 K436R,2
6,GFP–WDR34-WT mutant R182W [human] / DYNC2H1 [human (endogenous in RPE1)] chain 1 R182W,2
7,GFP–WDR34-WT mutant A22V [human] / DYNC2H1 [human (endogenous in RPE1)] chain 1 A22V,0.93
8,GFP–WDR34-WT mutant A341V [human] / DYNC2H1 [human (endogenous in RPE1)] chain 1 A341V,2
9,GFP–WDR34-WT mutant R206C [human] / DYNC2H1 [human (endogenous in RPE1)] chain 1 R206C,2.7
10,GFP–WDR34-WT mutant G393S [human] / DYNC2H1 [human (endogenous in RPE1)] chain 1 G393S,0.3
11,GFP–WDR34-WT mutant R447W [human] / DYNC2H1 [human (endogenous in RPE1)] chain 1 R447W,0.93
12,GFP–WDR34-WT mutant C148F [human] / DYNC2H1 [human (endogenous in RPE1)] chain 1 C148F,0.55
